According to publication PMC9535758 (EMBO Reports, 2022):

Target: T1, Human recombinant His-tagged PALB2 (human, UniProt Q86YC2 1-1186)
T1 sequence: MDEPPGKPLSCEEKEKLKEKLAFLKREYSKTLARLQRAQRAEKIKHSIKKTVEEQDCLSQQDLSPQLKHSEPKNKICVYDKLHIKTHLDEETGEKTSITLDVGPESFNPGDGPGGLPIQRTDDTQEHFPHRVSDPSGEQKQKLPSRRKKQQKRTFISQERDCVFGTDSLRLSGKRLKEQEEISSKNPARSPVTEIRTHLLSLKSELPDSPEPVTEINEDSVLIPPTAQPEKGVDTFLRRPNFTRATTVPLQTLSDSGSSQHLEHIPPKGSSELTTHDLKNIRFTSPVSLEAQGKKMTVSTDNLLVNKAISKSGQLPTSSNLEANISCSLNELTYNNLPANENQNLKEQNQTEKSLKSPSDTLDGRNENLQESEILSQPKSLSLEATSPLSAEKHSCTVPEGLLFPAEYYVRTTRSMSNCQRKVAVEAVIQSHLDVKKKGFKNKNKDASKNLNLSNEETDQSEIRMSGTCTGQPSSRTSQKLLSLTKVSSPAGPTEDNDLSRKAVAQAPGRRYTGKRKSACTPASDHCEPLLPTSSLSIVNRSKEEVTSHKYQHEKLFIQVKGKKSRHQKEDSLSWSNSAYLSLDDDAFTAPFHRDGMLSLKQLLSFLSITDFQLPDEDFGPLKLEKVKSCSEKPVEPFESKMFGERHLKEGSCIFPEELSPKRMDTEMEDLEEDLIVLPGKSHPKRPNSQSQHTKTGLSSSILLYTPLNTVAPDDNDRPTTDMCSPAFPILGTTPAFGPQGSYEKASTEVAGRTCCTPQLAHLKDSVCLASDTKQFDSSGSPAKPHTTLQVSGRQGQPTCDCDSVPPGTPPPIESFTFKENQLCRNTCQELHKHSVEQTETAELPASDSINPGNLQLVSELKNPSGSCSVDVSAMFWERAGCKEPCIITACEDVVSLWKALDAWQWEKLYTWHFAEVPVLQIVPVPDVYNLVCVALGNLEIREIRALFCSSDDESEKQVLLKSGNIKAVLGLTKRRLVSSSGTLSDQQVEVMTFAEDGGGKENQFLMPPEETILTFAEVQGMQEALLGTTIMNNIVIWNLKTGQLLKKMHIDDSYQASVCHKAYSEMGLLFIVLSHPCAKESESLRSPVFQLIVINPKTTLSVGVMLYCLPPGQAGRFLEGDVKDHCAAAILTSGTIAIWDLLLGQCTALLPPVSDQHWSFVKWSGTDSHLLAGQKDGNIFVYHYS
Experiment: pull-down

B1: BRCA2_(1-40)HA-His (domain or fragment)
chain: MPIGSKERPTFFEIFKTRCNKADLGPISLNWFEELSSEAP
Does B1 bind?
Result: binds
